Source: US20240209095A1 (DEVELOPMENT CENTER FOR BIOTECHNOLOGY, published 2024)
Changes are numbered by the printed parent chain.

B1: 1G8 humanized antibody HuHu (antibody, V domains shown)
VH: QVQLQESGPGLVKPSQTLSLTCTVSGYSITSDYWNWIRQPPGKGLEWIGYISYTGSTYYNPSLKSRVTISVDTSKNQFSLKLSSVTAADTAVYYCARRGEWLSPFAYWGQGTLVTVSS
VL: DIQMTQSPSSLSASVGDRVTITCKSSQSLLYSSNQKNSLAWYQQKPGKAPKLLIYWASTRESGVPSRFSGSGSGTDFTLTISSLQPEDFATYYCQQYYTYPFTFGQGTKLEIK
notes: Human IgG, kappa, from pTCAED vectors; also called 1G8 HuHu
B2: 1G8 humanized antibody HuHu2 (antibody, V domains shown)
VH: B1 VH
VL: DIVMTQTPLSLSVTPGQPASISCKSSQSLLYSSNQKNSLAWYLQKPGQSPQLLIYWASTRESGVPDRFSGSGSGTDFTLKISRVEAEDVGVYYCQQYYTYPFTFGQGTKLEIK
notes: Human IgG, kappa, from pTCAED vectors; also called 1G8 HuHu2
B3: 3C3 humanized antibody HuB2Hu2 (antibody, V domains shown)
VH: EVQLQESGPGLVKPSQTLSLTCTVSGYSITSDYWDWIRKPPGKGLEYMGYISYTGSTYYNPSLRSRITISRDTSKNQYSLKLSSVTAADTAVYYCARRGGWLSPFVYWGQGTLVTVSS
VL: B2 VL with S26R, Y31F
notes: Human IgG, kappa, from pTCAED vectors; also called 3C3-HuB2Hu2; 3C3 HuB2Hu2
B4: 1G8 humanized antibody HuB2Hu (antibody, V domains shown)
VH: B3 VH with D35N, R64K, G100E, V106A
VL: B1 VL
notes: Human IgG, kappa, from pTCAED vectors; also called 1G8 HuB2Hu
B5: 3C3 humanized antibody HuB2Hu (antibody, V domains shown)
VH: B3 VH
VL: B1 VL with S26R, Y31F
notes: Human IgG, kappa, from pTCAED vectors; also called 3C3-HuB2Hu; 3C3 HuB2Hu
B6: 1G8 humanized antibody HuB2Hu2 (antibody, V domains shown)
VH: B3 VH with D35N, R64K, G100E, V106A
VL: B2 VL
notes: Human IgG, kappa, from pTCAED vectors; also called 1G8 HuB2Hu2
B7: 3C3 humanized antibody HuB2Hu0 (antibody, V domains shown)
VH: B3 VH
VL: DIVMTQSPDSLAVSLGERATINCKSRQSLLFSSNQKNSLAWYQQKPGQPPKLLIYWASTRESGVPDRFSGSGSGTDFTLTISSLQAEDVAVYYCQQYYTYPFTFGQGTKLEIK
notes: Human IgG, kappa, from pTCAED vectors; also called 3C3-HuB2Hu0; 3C3 HuB2Hu0
B8: 1G8 humanized antibody HuB2Hu0 (antibody, V domains shown)
VH: B3 VH with D35N, R64K, G100E, V106A
VL: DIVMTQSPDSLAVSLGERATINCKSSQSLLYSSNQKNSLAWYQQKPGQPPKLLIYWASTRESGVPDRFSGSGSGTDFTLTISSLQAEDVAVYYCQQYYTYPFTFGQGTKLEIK
notes: Human IgG, kappa, from pTCAED vectors; also called 1G8 HuB2Hu0
B9: 1G8 humanized antibody HuHu0 (antibody, V domains shown)
VH: B1 VH
VL: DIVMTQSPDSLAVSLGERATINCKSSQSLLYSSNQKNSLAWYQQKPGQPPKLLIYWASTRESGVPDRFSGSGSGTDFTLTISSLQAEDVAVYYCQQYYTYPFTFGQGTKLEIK
notes: Human IgG, kappa, from pTCAED vectors; also called 1G8 HuHu0
B10: mouse hybridoma anti-human PD-L1 antibody 1G8 (antibody, V domains shown)
VH: QVQLQESGPGLAKPSQTLSLTCSVTGYSITSDYWNWIRKFPGNKLEFMGYISYTGSTYYNPSLKSRISITRDTSKNQYYLQLNSVTTEDTATYYCARRGEWLSPFAYWGQGTLVTVSA
VL: DIVMSQSPSSLGVSVGEKITMSCKSSQSLLYSSNQKNSLAWYQQKPGQSPKLLIYWASTRESGVPDRFTGSGSGTDFTLTISSVKSEDLAVYYCQQYYTYPFTFGAGTNLELK
notes: Mouse monoclonal antibody from hybridoma, detected with goat anti-mouse IgG; also called mAb 1G8; mouse clone 1G8
B11: mouse hybridoma anti-human PD-L1 antibody 3C3 (antibody, V domains shown)
VH: B10 VH with Q1E, A12T, N35D, F47Y, K64R, N83S, T87S, T90S, E100G, A106V
VL: B10 VL with I2T, K18R, I19V, M21L, S22T, S26R, Y31F, N109S
notes: Mouse monoclonal antibody from hybridoma, detected with goat anti-mouse IgG; also called mAb 3C3; mouse clone 3C3
B12: mouse-human chimera 3C3 MM (antibody, V domains shown)
VH: B10 VH with Q1E, A12T, N35D, F47Y, K64R, N83S, T87S, T90S, E100G, A106V
VL: B10 VL with I2T, K18R, I19V, M21L, S22T, S26R, Y31F, N109S
notes: Variable regions in human chimera antibody expression vectors pTCAED heavy and light; human IgG, kappa (detected with anti-human Kappa); also called 3C3 heavy chain M / light chain M; chimera PD-L1
B13: 3C3 heavy chain M / light chain Hu0 (antibody, V domains shown)
VH: B10 VH with Q1E, A12T, N35D, F47Y, K64R, N83S, T87S, T90S, E100G, A106V
VL: B7 VL
notes: Human IgG, kappa, from pTCAED vectors; tested as culture supernatant
B14: 3C3 heavy chain M / light chain Hu (antibody, V domains shown)
VH: B10 VH with Q1E, A12T, N35D, F47Y, K64R, N83S, T87S, T90S, E100G, A106V
VL: B1 VL with S26R, Y31F
notes: as for B13
B15: 3C3 heavy chain M / light chain Hu2 (antibody, V domains shown)
VH: B10 VH with Q1E, A12T, N35D, F47Y, K64R, N83S, T87S, T90S, E100G, A106V
VL: B2 VL with S26R, Y31F
notes: as for B13
B16: 3C3 heavy chain Hu-B1 / light chain M (antibody, V domains shown)
VH: B3 VH with K39Q, Y47W
VL: B10 VL with I2T, K18R, I19V, M21L, S22T, S26R, Y31F, N109S
notes: as for B13
B17: 3C3 heavy chain Hu / light chain M (antibody, V domains shown)
VH: B1 VH with N35D, K64R, E100G, A106V
VL: B10 VL with I2T, K18R, I19V, M21L, S22T, S26R, Y31F, N109S
notes: as for B13
B18: 3C3 heavy chain Hu-B2 / light chain M (antibody, V domains shown)
VH: B3 VH
VL: B10 VL with I2T, K18R, I19V, M21L, S22T, S26R, Y31F, N109S
notes: as for B13
B19: 3C3 heavy chain Hu-B1 / light chain Hu0 (antibody, V domains shown)
VH: B3 VH with K39Q, Y47W
VL: B7 VL
notes: as for B13
B20: 3C3 heavy chain Hu-B1 / light chain Hu2 (antibody, V domains shown)
VH: B3 VH with K39Q, Y47W
VL: B2 VL with S26R, Y31F
notes: as for B13
B21: 3C3 heavy chain Hu-B1 / light chain Hu (antibody, V domains shown)
VH: B3 VH with K39Q, Y47W
VL: B1 VL with S26R, Y31F
notes: as for B13
B22: 3C3 humanized antibody HuHu0 (antibody, V domains shown)
VH: B1 VH with N35D, K64R, E100G, A106V
VL: B7 VL
notes: Human IgG, kappa, from pTCAED vectors; also called 3C3 heavy chain Hu / light chain Hu0

What follows are binders tested against T1, PDL1-hFc (UniProt Q9NZQ7 19-238) (assay: ELISA titration on PDL1-hFc 1 ug/ml, 45 nM to 2.7×10^-3 nM, one site-specific binding fit).
T1 construct: Coated at 1 µg/ml in the ELISAs of the chimeric and humanized antibodies; construct not described
T1 sequence (Q9NZQ7 19-238): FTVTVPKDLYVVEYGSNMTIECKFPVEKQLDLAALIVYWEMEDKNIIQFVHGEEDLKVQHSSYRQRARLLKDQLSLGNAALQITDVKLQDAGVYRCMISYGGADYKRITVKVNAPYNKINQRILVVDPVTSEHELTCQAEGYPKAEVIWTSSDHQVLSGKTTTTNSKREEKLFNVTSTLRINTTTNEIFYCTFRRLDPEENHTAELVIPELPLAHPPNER
Method: (§1) ELISA plates were coating with PDL1-hFc 1 ug/ml and blocked by 5% milk PBS, then add assay antibodies form 45 nM to 2.7×10⁻³ nM dilute (4× fold dilution). Assay will measured by add goat anti-human KAPPA HRP IgG 1:4000 and binding curve and KD was determined by GraphPad Prism software using One site-specific binding for none linear fit methods.

Going from B1 to B2, the Kd rises from 3.24 nM to 9.68 nM (3-fold).

Compared with B3, B4 is 2.5-fold higher in Kd: 0.101 nM for the first, 0.248 nM for the second.

B5 and B6 are within 1.5-fold of each other in Kd: 0.0936 nM for the first, 0.108 nM for the second.

Going from B7 to B8, the Kd rises from 0.108 nM to 0.238 nM (2.2-fold). The first binds more tightly here.

Work on B9 yielded a Kd of 3.99 nM.

These binders were tested against T2, human PD-L1 expressed on cells (HCC827 cells; PD-L1 aAPC/CHO-K1 cells) (human, UniProt Q9NZQ7 19-290) (assay: cell-based or functional assay).
T2 sequence (Q9NZQ7 19-290): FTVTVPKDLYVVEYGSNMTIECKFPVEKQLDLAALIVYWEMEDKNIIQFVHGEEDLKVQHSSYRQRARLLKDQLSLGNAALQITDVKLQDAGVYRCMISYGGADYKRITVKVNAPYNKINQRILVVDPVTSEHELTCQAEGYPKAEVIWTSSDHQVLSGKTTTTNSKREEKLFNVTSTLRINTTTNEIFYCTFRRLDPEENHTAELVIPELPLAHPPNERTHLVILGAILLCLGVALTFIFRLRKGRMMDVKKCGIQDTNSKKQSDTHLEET

B10 and B11 are within 1.5-fold of each other in “PD1/PD-L1 Blockade Reporter Assay EC50” value: 0.62 nM for the first, 0.582 nM for the second.

Molecular target: T2, human PD-L1 expressed on cells (HCC827 …)
Test: cell-based or functional assay
Remark: another data set of the same source

B3 and B5 are within 1.5-fold of each other in “3C3 humanized antibodies Blockade Reporter Assay EC50” value: 0.409 nM for the first, 0.441 nM for the second.

With B7 the “3C3 humanized antibodies Blockade Reporter Assay EC50” value was 0.477 nM.

Each binder was assayed against T1, PDL1-hFc (assay: ELISA, PDL1-hFc coated 1 µg/ml, antibody supernatant at 300 ng/ml, anti-human Kappa HRP).
Method: The binding activity of humanized antibodies could be efficiently compared by all combination of heavy chains and light chains using mini scale antibody expression. The concentration of antibodies in culture supernatant was determent by anti-human IgG ELISA. For PDL1 ELISA, plates were coating with PDL1-hFc 1 μg/ml and blocked by 5% milk PBS. Assay antibodies were adjusted to 300 ng/ml, 100 μl/well. Anti-PDL1 signals were measured by secondary goat anti-human Kappa HRP IgG 1:4000 and color developed by TMB substrates (KPL). Optical absorption value was measured at OD450-655 nm by Bio-Rad ELISA reader.

Going from B12 to B13, the “OD450-650 nM, 300 ng/ml PDL1 binding” value rises from 1.52 OD to 1.58 OD.

Going from B14 to B15, the “OD450-650 nM, 300 ng/ml PDL1 binding” value falls from 1.85 OD to 1.55 OD.

First: B16
Second: B17
The “OD450-650 nM, 300 ng/ml PDL1 binding” value of the first is higher: 0.61 OD for the first, 0.25 OD for the second.

First: B18
Second: B19
The “OD450-650 nM, 300 ng/ml PDL1 binding” value of the first is higher: 1.2 OD for the first, 0.539 OD for the second.

First: B20
Second: B21
The “OD450-650 nM, 300 ng/ml PDL1 binding” value of the first is lower: 0.349 OD for the first, 0.455 OD for the second.

Going from B3 to B22, the “OD450-650 nM, 300 ng/ml PDL1 binding” value falls from 1.05 OD to 0.15 OD.

Compared with B5, B7 is lower in “OD450-650 nM, 300 ng/ml PDL1 binding” value: 1.35 OD for the first, 1.13 OD for the second.

The binders below were run against T3, human PD-L1 (coated on ELISA plate) (human, UniProt Q9NZQ7 19-238, limits assumed) (assay: ELISA, PD-L1 coated 0.1 µg/well, goat anti-mouse IgG-HRP).
T3 construct: construct not described; also called CD274; B7 homolog 1
T3 sequence (Q9NZQ7 19-238 limits assumed): as the sequence (Q9NZQ7 19-238) above
Method: Briefly, PD-L1 was coated on a 96-well ELISA plate (0.1 μg/well). After binding of anti-PD-L1 antibodies, a goat anti mouse IgG conjugated with horse radish peroxidase (HRP) was used as a second antibody and 3,3′,5,5′-Tetramethylbenzidine (TMB) was used as a substrate to assess the antibody-PD-L1 bindings. The OD405 was read to calculate the activities.

B10 and B11 are within 1.5-fold of each other in Kd: 0.0435 nM for the first, 0.0356 nM for the second.

What follows are binders tested against T1, PDL1-hFc (assay: ELISA titration on PDL1-hFc, KD compared with parental 3C3 (FIG. 10)).
Method: as §1

B3 and B5 cannot be ordered by “fold affinity loss against parental mouse clone 3C3” value: less than 2 fold for the first, less than 2 fold for the second.

In the case of B7, the “fold affinity loss against parental mouse clone 3C3” value is reported as less than 2 fold.

Molecular target: T2, human PD-L1 expressed on cells (HCC827 …)
Test: cell-based or functional assay
Remark: another data set of the same source

B10 and B11 are within 1.5-fold of each other in “Luc repoter EC50” value: 0.62 nM for the first, 0.58 nM for the second.
